# Data as given in paper PMC7329908.
# What was measured:
# [1] = target: C. elegans Hsp90 (HSP-90) (C. elegans) (UniProt Q18688); experiment: AUC; sedimentation velocity with fluorescence detection; 600 nM ATTO 488-labelled GRLBDm, 3 μM unlabelled chaperones and cofactors, 2 mM ATPγS; 20 mM HEPES, 20 mM KCl, 5 mM MgCl2, 50 μM dexamethasone, pH 7.5; 42,000 rpm, 20 °C
# [2] = target: C. elegans Hsp90 (HSP-90) (C. elegans) (UniProt Q18688); experiment: AUC; sedimentation velocity with fluorescence detection; 600 nM ATTO 488-labelled GRLBDm, 3 μM unlabelled chaperones and cofactors, no nucleotide; 20 mM HEPES, 20 mM KCl, 5 mM MgCl2, 50 μM dexamethasone, pH 7.5; 42,000 rpm, 20 °C
substance,measurement,setting,value
"ATTO 488-labelled GRLBDm, the ligand-binding domain of the human glucocorticoid receptor stabilized by mutagenesis (F602S/A605V/V702A/E705G/M752T) (domain or fragment)",fraction of GRLBDm bound,[1],0.22
same,fraction of GRLBDm bound (with Cep23/DAF-41 added),[1],0.28
same,fraction of GRLBDm bound,[2],0.49
